Test results as given in the nanobody polyreactivity screen of Harvey et al. (2022).

Assay: yeast display, Sf9 membrane polyspecificity reagent, FACS + sequencing; frameworks hold sequencing errors
How it was run: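 In a synthetic yeast display library (Saccharomyces cerevisiae BJ5465), nanobody expression was induced with galactose for 36–48 hours. FACS gates were set low and high (top ~1%) using anti-HA fluorescence for expression and streptavidin fluorescence for binding of the Sf9 membrane reagent. Each polyreactivity label is drawn from the gate of origin.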

Sequence	polyreactivity (PSR sort gate)
QVQLVESGGGLVQAGGSLLLSCAASGIIFRYYAMGWYRQAPGKERELVADISSDGGTYYADSVKGRFTISLDNATNTVYLQMNSLKPEDTAVDYCAADYQFYWHYYYWGQGTQVTVSS	high polyreactivity
QVQLVESGGGLVQAGCSLRLSCAASGSTFFFNAMGWYRQAPGKERELVAAITGRCGSTYYADSVKGRFTISRDNAKNTVYLQMNSLIPEDTAVYYCAAEGVPYWSSRFWRYDYWGQGTQVTVSS	low polyreactivity
QVQLQESGGGLVQAGGSLRLSCAASGYISAGRQMGWYRQAPGKEREFVATINGGATTNYADSVKGRFTISRDNAKNSVFLQMNSLKPEDTAVYYCAAVIWYVQDYSYWGQGAQVTVSS	high polyreactivity
QVQLVESGGGLVQAGGSLRLSCAASGITLSTYAMGWYRPAPGKERELVATITGNGDRTYYADSVKGRFTISRDNAKNTVYLQMNSLKPEDTAVYYCAKDSPGDGIGYGYWGQGTQVTVSS	low polyreactivity
QVQLVESGGGLLQAGGSLRLTCAASGFTFSLNTMGWYRQAPAKEREFVAAINSGDSTYADSVKGRYTISRDNAKNTVYLQMNSLKPEDTAVYYCNADPDWWYPYNYWGQGTQVTVSS	low polyreactivity
QVQIEESGGGLVQERGSLRLSCAAYGRIFDLYAMGWNRQAPGKERELVATISGSGGSTYYADSVKGRFTISRDTAKNTVYLQMNSLKPEDTAVYNCAAVSVSSWYDYWGQGTQVTVSS	low polyreactivity
QVQLVESGGGLVQAGGSLRLSCAASGRIFADYAMGWYRQAPGKERELVATITSGDRTYYADSVKGRFTTSRDNAKNTVYLQMNSLKPEDTAVYYCAAYKPWYVGLYPWYDYWGQGTQVTVSS	low polyreactivity
QVQLVESGGGLDQAGGSLRLSCAASGFIFYRYAMGWYRQAPGKERELVAAINWSGGGTYYADSVKGRFTISRDNAKNTVYLQMNSLKPEDTAVYYCAAVRSFRGSYWYEYWGQGTKVTVSS	high polyreactivity
QVQLVESGGGLVQAGGSLRLSCAASGIIFSSNAMGWYRQAPGKERELVAAITRRGGSTRYADSVKGRFTISRDNAKNTVYLQMNSLKPEDTAVYYCNALTGYPYRWGISYPMDYWGQGTQVTVSS	high polyreactivity
QVQLVESGGGLFQAGGSLRLSCAASGLTFNRYAMGWSRQAPGKERELVAAIDYSGGRTYYADSVKGRFTISRDYAKNTVYLQMNSLKPEDTAVFYCNALTRSVSRLLYDFWGQGSQVTVSS	high polyreactivity
QVQLVESGGGLVQAGGSLRLSCAASGYIYYYNGMGWYRQAPGKERELVADISRRGGSTYYADSVKGRFTISRDNAKNTESLQMNSLKPEDTAVYYCNARARSAFSYDSWGQGTQVTVSS	high polyreactivity
QVQLVESGGGLVQAGGSLRLSCAASGSTFYPNAMGWYRQAPGKERELVAAITTSGGSTYYADSVKGRCTISRDNAKNTVYLQMNSLKPEDTAVYYCAAEVRDRGWEPYGPIYDYWGQGTQVTVSS	high polyreactivity
QVQLVESGGGLVQAGGSLRLSCAASGRTFTWNVMGWYRQAPGKERELVAAITTDDRTYADSVKGRFTISRDNAKNTVYLQMNILKPEDTAVYYCATVVAWSSRPVGEDYWGQGTQVTVSS	low polyreactivity
QVQLVESGGGLVQAGGSLRLSCAASGSTFYDYAMGWYRQAPGKERELVASIDSGDSTNYADSVKGRFTISRDNAKNTVYLQMNSLKPEDTAVYYCAADYQNTGARYWYYYWGQGTQVTVSS	low polyreactivity
QVQLVESGGGLVQAGGSLRLSCAASGFTIFEDNAMGSYRQAPGKERELVAAITSGGSTNYADSVKGRFTISRDNAKNTVYLQMNSLKPEDTAVYYCAYDRVPLKTRFYYFPWGYDYWGQGTQVTVSS	low polyreactivity
QVQLVESGGGLVQAGGSLRLSSAASGRIFIDYAMGWYRQAPGTDRELVATITSSGGSTYYADSVKGRFTISRDNAKNTVYIQMTSLKPVDTAVYYCNAKERYYFGNYKYGYWGQGTQVTVSS	low polyreactivity
QVQLVESGGGLVQAGGSLRLSCAASGFTFGINAKGWYRQAPGKERELVAALSWSGGSTYYADSVKGRFTISRDNAKNTVYLQMNSLKPEDTAVYYCAVVWFSLWYKGSTFNRYDYWGQGTQVTVSS	low polyreactivity
QVQLVESGGGLVQAGGSLRLTCAASGYTFRAYVMGWYRQAPGKERELVAGITRRGGTTYYADSVKGRFTISRYNAKNTVYLQMNSLKPEDTAVYYCNAVYRSGSIPYDSWGQGTQVTVSS	high polyreactivity
QVQLVESGGGLVQAGGSLRLSCAASGSTFYYYAMGWYRQAPGKEREFVAAISGGDGTTSYADSVKGRFTISRDNAKNTVYLQMNSLKPEDTAVYYCATPYTSYLYGYDYWGQGTQVTVSS	low polyreactivity
PVQHVESGGGLVQAGGSLRLSCAASGSTLRTYAMGWYRQAPGKERELVAAISFSTTSTYYADSVKGRFTISRDNAKNTVYLQMNSLKPEDTADYYCAAGPRTRYQPDLPGCYYSWGQGTQVTVSS	high polyreactivity
QVQLVESGGGLVQAGGSLRLSCAASGFIFANYGMGWYRQAPGKERELVAAISSGGRTYYADSVKARFTISRDNAKNTVYFQMNSLQPEDTAVYYCAAVVRRYNAEDYWGQGTQVTVSS	high polyreactivity
QVQLVESGGGLVQAGGSLRLSCAASGITFDYYDMGWYRTAPGKERELVAAISSDGSTYYADSVKGRFTISRDNAKNTVYLQMNSLKPEDTAVYYCNAVAIEPYFYVVYDIFDYWGQGTQVTVSS	low polyreactivity

Sequence	polyreactivity (PSR sort gate)
QVQHVESGGGLVQAGGSLRLSCAASGRTFYKNTMGWYRQAPGKERELVAGISQRGGRTYYADSVKGRFTISRDNAKNTVYLQMNSLEPEDTAVYYCNKRRAAGGFPFDYWGQGTQVTVSS	high polyreactivity
QVQLVESGGGLVQAGGSLRISCAASGSTFWYYAMGWYRQAPGKERELVAVINSGGITNYADSVKGRFTISRDNAKNTVYLQMNSLKPEDTAVYYCNKRLYWGYGEMDYWGQGTQVTVSS	low polyreactivity
QVQLVESGGGLVQAGGSLRLSCAASGSTFQPYAMGWYIQAPGKEREFVATISGSAGSTYYADSVKGRFKISRDNAKNTVYLQMNSLKPEDTAVYYCNADSGWFGYDYWGQGTQVTVSS	low polyreactivity
QVQLVESGGGLDQSGGSLRLTCAASGFTFVINDMGRYIHAPGKEMEWVADITSGGDTYYADSVKGRFTISRDNAKNTVYLQSNRLKPEDTAVYYCAADIYPDWIYLLYGYWGQGTQVNVSS	low polyreactivity
QVQLVESGGGLVQAGGSLRLSCAASGFTFFSNAMGWNRQAPGKERELVAAIDWSGDNTNYADSVKGRFTISRDNAKNTVYLQLNSLKPEDTAVYYCAAVYSYYRLYAYPAYYYWGQGTQVTVSS	low polyreactivity
QFQHVESGGGLVQARGSRRLSCAASGRTLYRNAMGWYRPARGKERELVAAITSGGHTKYADSVKGRFTISRDNAKNTVYLQMNSLKPVDTAVYYCNARYIRYSVGFLYTRYDYCGQGTQVTVSS	high polyreactivity
QVQLVESGGGLVQAGGSLRLSCAASGFIFAFYDMGWYRQAPGKERELVAAISWGGSTYYADSVKGRFTISRDNAKNTVYLQMNSLKPQDTAVYYCAARLSRSYRYGYWGQGTQVTVSS	high polyreactivity
QVQLVESGGGLVQAGGSLRLSCAASGRTFLYYAMGWYRQSPGKERELVAAINRSGRTYYADSVKGRFTISRDNAKNTVYLQMNSLKPEDTAVYYCAADTRYPYRAYDYWGQGTQVTVSS	high polyreactivity
QVQLVESGGGLVQAGGSLRLSCAASGFIFERNTMGWYRQAPGKERELVATISRSAGNTYYADSVKGRFTISRDNANNTVYLQMNSLKPEDSAAYYCAKDHRTRGYDYWGQGTQVSVSS	low polyreactivity
QVQLVESGGGLVQAGGSLRLSCAASGSIFRSYAMGWYRQAPGKERELVAAISWRGGRTYYADSVKGRFTISRDNAKNTVYLQMNSLKPEDTAVYYCAVDFYVYRWSPYGDVYRYDYWGQGTQVTVSS	high polyreactivity
QVQLVESGGGLVQAGGSLRLSCAASGSIFRQYAMGWYRQAPGKERELVAAINYSGGNTYYADSVKGRFTISRDNAKNTVYLQMNSLKPEDTAVYYCAADSVRHYWWAYYYWGQGTQVTVSS	low polyreactivity
QVQLVESGGGLVQAGGSLRLSCAASGFNFEAYTMGWYRQAPGKERELVASIDWDGGSTYYADSVKGRFTISRDNAKNTVYLQMNSLKPEDTAVYYCAADSRQYDELGDYDYWGQGTQVTVSS	low polyreactivity
QVQLVESAGGLVQAGGSLSLSCAASGITFYRYVMGWYRQAPGKERELVAAISVSGGRTYYADSVKGRFTISRDNAKNTVYLQMNSLKPEDTAVYYCAARWAGSKSATVQYDYWGQGTQVTVSS	high polyreactivity
QVQLVESGGGLVQAGGSLRLSCAASGSIFQRNAIGWSRQAPGKERELVAAITTTGGITHYADSVKGRFTISRDNAKNTVYLQMNSLKPEDTAVYYCAASNEVPWRFPDDYWGQGTQVTVSS	low polyreactivity
QVQLVESGGGLVQEGGSLRLSCAASGSNLKGYAMGWYRQAPGKERELVARITRGGSTNYADSVKGRFTISRDNAKNTVYLQRNSLKPEDTAVYYCNKSGRWSARSASREVGDDYWGQGTQVTVSS	low polyreactivity
QVQLVESGGGLVQAGGSLRLSCAASGSTFWEYAMGWYRQGPGTERELVAAISSSGGSTYYADSVKGRFTISRDNAKNTVYLQMNSLKPEDTAVYYCAARYSWRRAGYYYWGQGTQVTVSS	high polyreactivity
QVQLVESGGGLVQAGGSLRLSCAASGFTFPDNAMGWYRQAPGKERELVAAITTSGGRTYYADSVKGRFTISRDNAKNTVYLQMNSLKPEDTAVYYCARPSRRTGREYGYWGQGTQVTVSS	high polyreactivity
QVQLVESGGGVVQAGGSLRLSCAASGFIFPLYTMGWSRQAPGKERELVAAITGSGGSTYYADSVKGRFTISRDNAKNTVYLQMNSLKPEDTAVYYCAKDYTYGMDWGQGTQVTVSS	low polyreactivity
QVQLVESGGGLVQAGGSLRLSCAASGIIFTGYAMGWYRQAPGKERELVAAISGSGGRTYYSDSVKGRFTISRDNAKNTVYLQMNSLKPEDTAVYYCAAYRVSDYDYWGQGTQVTVSS	high polyreactivity
KVQLVESGGGLVQAGGSLRLSCAASGFTFLRYAMGGYRQAPGKERELVAAIRFSGGSTYYADSVKGRFTISRDNAKNNVYLQMNSLKPEDTAVYYCAAYIRSYGYDYWGQGTKVTVSS	high polyreactivity
QVQLVESGGGLVQAGGSLRLSCAASGRTFVTYAMGWYRQAPGKERELVAGISRRGGRTYYADSVKGRFTISRDNAKNTVYLQMNSLKPEDTAVYYCAAYDRITRYDYWGQGTQVTVSS	high polyreactivity
